Data as given in paper PMC9891525.

molecular target: biotinylated recombinant SARS-CoV-2 wild type spike RBD (UniProt P0DTC2); settings: n = four independent experiments; read off a plot

“REGN10987 scFv displayed on the surface of HEK 293T cells D54I” was tested, and the enrichment was 3.2 log2(FC).

molecular target: biotinylated recombinant SARS-CoV-2 wild type spike RBD (UniProt P0DTC2); settings: n = 2 replicates; parent: est. 100; read off a plot

In order of rising percent of parent (Relative fluorescence):
1. REGN10987 scFv displayed on the surface of HEK 293T cells D54Y  82
2. REGN10987 scFv displayed on the surface of HEK 293T cells D54F  97
3. REGN10987 scFv displayed on the surface of HEK 293T cells D54I  110
4. REGN10987 scFv displayed on the surface of HEK 293T cells D54T  120
5. REGN10987 scFv displayed on the surface of HEK 293T cells N57H  120
6. REGN10987 scFv displayed on the surface of HEK 293T cells D54L  130
7. REGN10987 scFv displayed on the surface of HEK 293T cells S97Y  150

molecular target: biotinylated recombinant SARS-CoV-2 wild type spike RBD (UniProt P0DTC2); settings: n = 2 replicates; parent: est. 110; read off a plot

In order of falling percent of parent (Relative fluorescence):
1. REGN10987 scFv displayed on the surface of HEK 293T cells S97Y; D54T; N57H  240
2. REGN10987 scFv displayed on the surface of HEK 293T cells S97Y; D54I  220
3. REGN10987 scFv displayed on the surface of HEK 293T cells S97Y; D54L  220
4. REGN10987 scFv displayed on the surface of HEK 293T cells S97Y; D54T  220
5. REGN10987 scFv displayed on the surface of HEK 293T cells S97Y; N57H  200
6. REGN10987 scFv displayed on the surface of HEK 293T cells S97Y; D54Y; N57H  160
7. REGN10987 scFv displayed on the surface of HEK 293T cells S97Y; D54Y  130
8. REGN10987 scFv displayed on the surface of HEK 293T cells S97Y; D54F; N57H  110
9. REGN10987 scFv displayed on the surface of HEK 293T cells S97Y; D54F  100

molecular target: biotinylated recombinant SARS-CoV-2 wild type spike RBD (UniProt P0DTC2); settings: n = 2 replicates; parent: est. 100; read off a plot; remark: another data set of the same source

In order of falling percent of parent (Relative fluorescence):
1. REGN10987 scFv displayed on the surface of HEK 293T cells L106N; N57T  130
2. REGN10987 scFv displayed on the surface of HEK 293T cells L106N; N57F  120
